# Measurements: IntAct's records for PubMed 21240272
# B1: G protein pathway suppressor 2 (Homo sapiens), Q13227 (parent)
# chain: MPALLERPKLSNAMARALHRHIMMERERKRQEEEEVDKMMEQKMKEEQERRKKKEMEERMSLEETKEQILKLEEKLLALQEEKHQLFLQLKKVLHEEEKRRRKEQSDLTTLTSAAYQQSLTVHTGTHLLSMQGSPGGHNRPGTLMAADRAKQMFGPQVLTTRHYVGSAAAFAGTPEHGQFQGSPGGAYGTAQPPPHYGPTQPAYSPSQQLRAPSAFPAVQYLSQPQPQPYAVHGHFQPTQTGFLQPGGALSLQKQMEHANQQTGFSDSSSLRPMHPQALHPAPGLLASPQLPVQMQPAGKSGFAATSQPGPRLPFIQHSQNPRFYHK
# partner: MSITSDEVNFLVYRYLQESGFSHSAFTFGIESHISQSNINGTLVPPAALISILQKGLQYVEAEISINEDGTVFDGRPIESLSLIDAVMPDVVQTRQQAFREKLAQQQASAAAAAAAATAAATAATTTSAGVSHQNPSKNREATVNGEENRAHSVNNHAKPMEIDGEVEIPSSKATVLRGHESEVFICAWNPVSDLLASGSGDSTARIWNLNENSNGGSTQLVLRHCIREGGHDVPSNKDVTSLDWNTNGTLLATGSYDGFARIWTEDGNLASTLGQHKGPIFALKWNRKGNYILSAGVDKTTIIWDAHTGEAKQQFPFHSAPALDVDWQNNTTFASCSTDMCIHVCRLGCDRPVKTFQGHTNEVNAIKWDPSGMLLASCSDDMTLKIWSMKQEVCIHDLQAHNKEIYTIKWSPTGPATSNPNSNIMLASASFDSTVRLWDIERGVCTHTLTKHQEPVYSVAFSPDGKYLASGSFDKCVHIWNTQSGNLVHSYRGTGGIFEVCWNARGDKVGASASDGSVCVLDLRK
# B2: F-box-like/WD repeat-containing protein TBL1X (Homo sapiens), O60907-2 (parent)
# chain: B1 partner
# Variants of: B1
# Conditions: with TBL1X
row,Variant,effect of a mutation on the interaction
1,H19A;R20E;I22A,disrupting interaction

# Variants of: B2
# Conditions: with ncor2_human NCOR2, Q9Y618
# Chain of ncor2_human NCOR2, Q9Y618 (Q9Y618 whole entry): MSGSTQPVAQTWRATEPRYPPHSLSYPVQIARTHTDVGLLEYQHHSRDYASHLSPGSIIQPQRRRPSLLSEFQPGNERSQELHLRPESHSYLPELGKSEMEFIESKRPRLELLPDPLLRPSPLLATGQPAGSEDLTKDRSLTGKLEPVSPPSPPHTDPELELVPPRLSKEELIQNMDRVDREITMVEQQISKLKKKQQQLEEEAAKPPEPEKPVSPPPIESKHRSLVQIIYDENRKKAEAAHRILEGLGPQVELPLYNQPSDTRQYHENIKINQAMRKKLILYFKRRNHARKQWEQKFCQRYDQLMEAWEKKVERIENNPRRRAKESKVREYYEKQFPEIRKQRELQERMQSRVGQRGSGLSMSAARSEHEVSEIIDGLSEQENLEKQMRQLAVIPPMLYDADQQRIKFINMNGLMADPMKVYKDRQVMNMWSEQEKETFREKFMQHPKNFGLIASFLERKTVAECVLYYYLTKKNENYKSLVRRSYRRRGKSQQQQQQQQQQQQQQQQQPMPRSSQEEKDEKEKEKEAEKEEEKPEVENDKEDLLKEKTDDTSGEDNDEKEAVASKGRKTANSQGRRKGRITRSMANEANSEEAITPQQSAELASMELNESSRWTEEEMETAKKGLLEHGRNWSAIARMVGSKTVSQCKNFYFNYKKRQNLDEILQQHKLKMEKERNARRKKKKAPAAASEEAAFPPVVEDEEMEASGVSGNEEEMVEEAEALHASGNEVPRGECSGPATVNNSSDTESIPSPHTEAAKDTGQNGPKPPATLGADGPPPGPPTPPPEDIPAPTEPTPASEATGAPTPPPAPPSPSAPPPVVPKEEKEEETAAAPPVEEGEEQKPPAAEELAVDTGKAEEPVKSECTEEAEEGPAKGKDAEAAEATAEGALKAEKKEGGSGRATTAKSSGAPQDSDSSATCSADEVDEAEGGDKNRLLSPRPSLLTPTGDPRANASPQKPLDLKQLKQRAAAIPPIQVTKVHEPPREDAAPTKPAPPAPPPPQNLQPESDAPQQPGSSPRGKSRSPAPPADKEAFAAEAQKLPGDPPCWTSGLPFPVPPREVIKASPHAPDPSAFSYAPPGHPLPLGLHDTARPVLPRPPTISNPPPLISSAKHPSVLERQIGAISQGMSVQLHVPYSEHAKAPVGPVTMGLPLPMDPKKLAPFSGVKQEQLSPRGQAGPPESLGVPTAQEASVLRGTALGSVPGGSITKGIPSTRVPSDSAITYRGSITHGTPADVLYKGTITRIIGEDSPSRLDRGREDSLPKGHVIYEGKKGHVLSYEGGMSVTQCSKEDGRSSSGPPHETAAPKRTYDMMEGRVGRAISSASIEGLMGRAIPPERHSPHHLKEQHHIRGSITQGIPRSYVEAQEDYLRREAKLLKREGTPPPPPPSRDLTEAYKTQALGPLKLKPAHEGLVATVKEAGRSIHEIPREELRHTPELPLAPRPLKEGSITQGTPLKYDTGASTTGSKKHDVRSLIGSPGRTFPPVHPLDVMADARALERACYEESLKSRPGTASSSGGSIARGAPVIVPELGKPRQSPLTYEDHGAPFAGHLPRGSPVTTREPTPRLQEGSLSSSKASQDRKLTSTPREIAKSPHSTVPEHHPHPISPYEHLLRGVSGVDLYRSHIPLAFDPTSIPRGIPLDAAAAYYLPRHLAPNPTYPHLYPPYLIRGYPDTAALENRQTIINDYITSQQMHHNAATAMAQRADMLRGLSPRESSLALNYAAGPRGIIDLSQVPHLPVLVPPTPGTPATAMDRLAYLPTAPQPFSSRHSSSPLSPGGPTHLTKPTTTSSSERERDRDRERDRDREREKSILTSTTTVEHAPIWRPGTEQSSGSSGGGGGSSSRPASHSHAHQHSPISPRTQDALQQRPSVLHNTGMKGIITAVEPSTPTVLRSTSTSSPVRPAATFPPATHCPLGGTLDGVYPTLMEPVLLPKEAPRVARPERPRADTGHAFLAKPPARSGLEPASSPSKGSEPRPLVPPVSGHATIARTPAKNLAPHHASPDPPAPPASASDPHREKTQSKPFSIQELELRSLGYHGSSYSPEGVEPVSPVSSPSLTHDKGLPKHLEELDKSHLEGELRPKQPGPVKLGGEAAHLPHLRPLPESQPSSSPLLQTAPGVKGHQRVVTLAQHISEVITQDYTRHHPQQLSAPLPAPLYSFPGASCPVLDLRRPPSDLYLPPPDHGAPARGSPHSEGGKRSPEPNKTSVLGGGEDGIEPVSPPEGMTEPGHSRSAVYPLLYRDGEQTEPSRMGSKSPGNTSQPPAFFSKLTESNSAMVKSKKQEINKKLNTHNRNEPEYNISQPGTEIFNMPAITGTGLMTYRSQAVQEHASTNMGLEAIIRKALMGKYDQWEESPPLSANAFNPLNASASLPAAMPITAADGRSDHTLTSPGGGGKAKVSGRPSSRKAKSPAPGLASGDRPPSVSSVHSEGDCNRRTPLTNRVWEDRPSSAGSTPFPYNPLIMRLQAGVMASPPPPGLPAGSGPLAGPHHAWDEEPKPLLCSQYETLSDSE
row,Variant,effect of a mutation on the interaction
1,I39A,decreasing interaction
2,P45G,decreasing interaction
3,L57A,decreasing interaction strength
4,L57Q,decreasing interaction strength
5,V60N,disrupting interaction

# Variants of: B2
# Conditions: with gps2_human GPS2, Q13227
row,Variant,effect of a mutation on the interaction
1,L57A,decreasing interaction strength
2,L57Q,decreasing interaction strength
3,V60N,disrupting interaction
